1 substance from article PMC5921052 can be followed below.

The test has as its target Hsp90 yeast homologue (Hsc82) (yeast) (UniProt P15108).
Sequence of UniProt P15108 (P15108 whole entry): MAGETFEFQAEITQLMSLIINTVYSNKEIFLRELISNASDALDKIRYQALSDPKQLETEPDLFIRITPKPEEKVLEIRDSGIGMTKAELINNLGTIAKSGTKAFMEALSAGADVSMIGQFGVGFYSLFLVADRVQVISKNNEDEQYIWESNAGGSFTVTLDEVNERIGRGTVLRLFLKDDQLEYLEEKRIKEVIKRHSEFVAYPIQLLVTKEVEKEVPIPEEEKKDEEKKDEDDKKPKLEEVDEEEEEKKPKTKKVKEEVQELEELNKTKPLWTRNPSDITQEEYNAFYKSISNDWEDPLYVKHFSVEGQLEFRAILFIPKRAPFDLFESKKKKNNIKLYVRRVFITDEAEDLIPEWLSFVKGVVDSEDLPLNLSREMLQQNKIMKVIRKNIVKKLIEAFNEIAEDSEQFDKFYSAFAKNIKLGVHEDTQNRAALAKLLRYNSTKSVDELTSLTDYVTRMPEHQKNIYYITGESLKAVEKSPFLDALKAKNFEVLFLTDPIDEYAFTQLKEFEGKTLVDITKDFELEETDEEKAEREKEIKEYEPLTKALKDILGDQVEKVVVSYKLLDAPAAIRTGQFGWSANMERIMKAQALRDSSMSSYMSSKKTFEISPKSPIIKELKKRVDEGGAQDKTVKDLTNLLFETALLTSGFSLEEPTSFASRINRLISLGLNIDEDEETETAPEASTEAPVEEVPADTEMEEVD

“model client protein Δ131Δ (domain or fragment)”: the other was 1.8 fold.
